Target: T1, Bd0109 (Bdellovibrio bacteriovorus HD100, UniProt Q6MRH5 1-550)
T1 sequence (looked up): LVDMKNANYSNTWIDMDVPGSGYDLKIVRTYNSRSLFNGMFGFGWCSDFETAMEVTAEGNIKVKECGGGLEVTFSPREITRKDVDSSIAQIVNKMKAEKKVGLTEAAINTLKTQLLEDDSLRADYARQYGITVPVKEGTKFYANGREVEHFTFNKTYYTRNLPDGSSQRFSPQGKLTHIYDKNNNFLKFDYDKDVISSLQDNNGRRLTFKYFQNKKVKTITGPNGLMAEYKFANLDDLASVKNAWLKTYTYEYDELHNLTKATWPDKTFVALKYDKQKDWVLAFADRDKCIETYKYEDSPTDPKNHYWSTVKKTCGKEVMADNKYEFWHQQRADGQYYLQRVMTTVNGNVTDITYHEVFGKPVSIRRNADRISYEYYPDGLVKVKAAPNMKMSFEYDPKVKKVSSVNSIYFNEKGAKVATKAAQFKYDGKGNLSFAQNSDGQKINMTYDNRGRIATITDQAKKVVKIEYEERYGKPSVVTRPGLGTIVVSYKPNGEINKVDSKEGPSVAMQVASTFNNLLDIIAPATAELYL
Test: ITC; 1.2 mM Bd0108 titrated into 0.02 mM Bd0109; VP-ITC, 25°C; 20 mM Tris pH 7.0 100 mM NaCl 1 mM β-ME; one-site model
Conditions: both partners purified

Kd: 45 µM
dH: -2.08 kcal/mol
stoichiometry N: 3.1
B1: Bd0108 (natural protein, Bdellovibrio bacteriovorus HD100)
chain: SHMADENANRPVNPGEDPNEAFRSTPFEATTSALGDCRECIAYRTGATTGKGSRRHDDTVSREIKGSSATPGGSEKAGTGRQ
modifications: disulfide between C56 and C59; 15N-labelled in the NMR titration
notes: tripeptide left on the mature N-terminus after thrombin cleavage of the His tag (cloning artefact); Bd0108 of Bdellovibrio bacteriovorus HD100, a 101 amino acid protein with an N-terminal Sec signal peptide; amino acids 23-101 cloned into pET28b; The assigned cloning artefacts (residues 21 and 22) in the titration point to this cytoplasmic construct and not to the PelB construct; also called …
